T1: rat CCR8 (rat, UniProt D4ADE0 1-353)
T1 sequence: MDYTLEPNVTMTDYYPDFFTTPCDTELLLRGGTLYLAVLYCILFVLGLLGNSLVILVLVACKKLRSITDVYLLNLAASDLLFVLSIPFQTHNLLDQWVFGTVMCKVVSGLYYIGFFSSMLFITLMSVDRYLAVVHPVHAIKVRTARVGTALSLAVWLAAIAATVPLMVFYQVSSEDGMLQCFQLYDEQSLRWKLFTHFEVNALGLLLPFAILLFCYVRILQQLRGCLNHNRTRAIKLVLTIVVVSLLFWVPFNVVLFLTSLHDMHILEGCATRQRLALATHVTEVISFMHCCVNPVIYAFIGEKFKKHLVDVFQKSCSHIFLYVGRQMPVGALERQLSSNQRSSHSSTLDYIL

T2: rabbit CCR8 (rabbit, UniProt G1T2B2 1-355)
T2 sequence: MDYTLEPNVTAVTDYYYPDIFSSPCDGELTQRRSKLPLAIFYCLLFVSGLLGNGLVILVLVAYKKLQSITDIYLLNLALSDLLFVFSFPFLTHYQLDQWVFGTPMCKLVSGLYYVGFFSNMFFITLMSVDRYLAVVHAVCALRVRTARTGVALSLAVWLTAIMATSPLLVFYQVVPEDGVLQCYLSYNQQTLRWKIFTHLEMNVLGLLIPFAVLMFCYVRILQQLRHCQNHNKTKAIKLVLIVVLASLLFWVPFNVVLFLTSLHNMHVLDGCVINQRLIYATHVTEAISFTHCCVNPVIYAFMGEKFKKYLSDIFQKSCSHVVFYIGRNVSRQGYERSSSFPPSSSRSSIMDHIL

T3: mouse CCR8 (mouse, UniProt P56484 1-353, limits assumed)
T3 sequence (looked up): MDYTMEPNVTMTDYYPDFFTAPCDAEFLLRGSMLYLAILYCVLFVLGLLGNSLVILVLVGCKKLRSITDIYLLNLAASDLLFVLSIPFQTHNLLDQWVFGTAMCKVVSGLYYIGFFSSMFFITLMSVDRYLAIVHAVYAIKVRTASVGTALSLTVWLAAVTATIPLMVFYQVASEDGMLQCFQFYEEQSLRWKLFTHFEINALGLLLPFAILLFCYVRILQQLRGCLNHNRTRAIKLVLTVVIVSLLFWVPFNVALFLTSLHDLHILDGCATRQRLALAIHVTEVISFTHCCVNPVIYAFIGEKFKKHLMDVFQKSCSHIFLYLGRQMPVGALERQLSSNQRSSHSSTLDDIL

B1: AC-264700 (antibody, V domains shown)
VH: EVQLVESGGGLVQPGGSLKLSCAASGFIFSNAVMYWVRQASGKGLEWVARIKTKFNNYATYYADSVKGRFTISRDDSKNMVYLQMNSLKTEDTAVYYCTAGDRNKPFAYWGQGTLVTVSS
VL: ETVVTQSPATLSLSPGERATLSCRASDSVITLLHWFQQKPGQAPRLLIHGASNLESRVPARFSGSGSGTDFTLTISSLEPEDFATYFCQQSWNDPYTFGQGTKLEIKR
B2: AC-277483 (antibody, V domains shown)
VH: EVQLVESGGGLVQPGGSLKLSCAASGFIFSNAVMYWVRQASGKGLEWVARIKTKFNNYATYYADAVKGRFTISRDDSKNMVYLQMNSLKTEDTAVYYCTAGDRNKPFAYWGQGTLVTVSS
VL: ETVVTQSPATLSLSPGERATLSCRASDAVITLLHWFQQKPGQAPRLLIHGASNLESRVPARFSGSGSGTDFTLTISSLEPEDFATYFCQQSWNDPYTFGQGTKLEIKR
B3: AC-277357 (fucosylated) (antibody, human IgG1, kappa, V domains shown)
VH: EVQLVESGGGLVQPGGSLKLSCAASGFIFSNAVMYWVRQASGKGLEWVARIKTKFNNYATYYADAVKGRFTISRDDSKNMVYLQMNSLKTEDTAVYYCTAGDRNKPFAYWGQGTLVTVSS
VL: ETVVTQSPATLSLSPGERATLSCRASTSVITLLHWFQQKPGQAPRLLIHGASNLESRVPARFSGSGSGTDFTLTISSLEPEDFATYFCQQSWNDPYTFGQGTKLEIKR
notes: AC-264700 with LCDR1 D27→T. Human IgG1 kappa
B4: AC-277371 (antibody, V domains shown)
VH: EVQLVESGGGLVQPGGSLKLSCAASGFIFSNAVMYWVRQASGKGLEWVARIKTKFNNYATYYADAVKGRFTISRDDSKNMVYLQMNSLKTEDTAVYYCTAGDRNKPFAYWGQGTLVTVSS
VL: ETVVTQSPATLSLSPGERATLSCRASGSVITLLHWFQQKPGQAPRLLIHGASNLESRVPARFSGSGSGTDFTLTISSLEPEDFATYFCQQSWNDPYTFGQGTKLEIKR
B5: ABBV-514 (antibody, human IgG1, kappa, V domains shown)
VH: EVQLVESGGGLVQPGGSLKLSCAASGFIFSNAVMYWVRQASGKGLEWVARIKTKFNNYATYYADAVKGRFTISRDDSKNMVYLQMNSLKTEDTAVYYCTAGDRNKPFAYWGQGTLVTVSS
VL: ETVVTQSPATLSLSPGERATLSCRASTSVITLLHWFQQKPGQAPRLLIHGASNLESRVPARFSGSGSGTDFTLTISSLEPEDFATYFCQQSWNDPYTFGQGTKLEIKR
modifications: afucosylated N-glycan at ASN-300 (EU: ASN-297)
notes: Afucosylated humanized IgG1 kappa made in cells expressing Pseudomonas RMD

Columns and labels:
[1] = target: T4, human CCR8 (chemokine receptor 8) (human, UniProt P51685 1-355); assay: cell-based or functional assay
T4 sequence (P51685 whole entry): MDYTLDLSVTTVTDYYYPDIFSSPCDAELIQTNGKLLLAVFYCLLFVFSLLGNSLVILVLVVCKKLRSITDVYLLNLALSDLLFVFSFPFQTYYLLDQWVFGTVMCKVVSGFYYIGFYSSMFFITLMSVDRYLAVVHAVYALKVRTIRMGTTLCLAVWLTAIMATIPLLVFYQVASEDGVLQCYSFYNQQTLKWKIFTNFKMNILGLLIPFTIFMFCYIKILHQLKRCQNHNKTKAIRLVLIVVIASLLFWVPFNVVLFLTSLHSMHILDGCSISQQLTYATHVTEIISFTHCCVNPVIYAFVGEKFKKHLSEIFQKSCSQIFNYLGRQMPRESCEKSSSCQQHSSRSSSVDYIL

cynomolgus CCR8 [2] = target: T5, cynomolgus CCR8 (cynomolgus monkey, UniProt G7NYJ2 1-355); assay: cell-based or functional assay
T5 sequence (G7NYJ2 entry or part of it): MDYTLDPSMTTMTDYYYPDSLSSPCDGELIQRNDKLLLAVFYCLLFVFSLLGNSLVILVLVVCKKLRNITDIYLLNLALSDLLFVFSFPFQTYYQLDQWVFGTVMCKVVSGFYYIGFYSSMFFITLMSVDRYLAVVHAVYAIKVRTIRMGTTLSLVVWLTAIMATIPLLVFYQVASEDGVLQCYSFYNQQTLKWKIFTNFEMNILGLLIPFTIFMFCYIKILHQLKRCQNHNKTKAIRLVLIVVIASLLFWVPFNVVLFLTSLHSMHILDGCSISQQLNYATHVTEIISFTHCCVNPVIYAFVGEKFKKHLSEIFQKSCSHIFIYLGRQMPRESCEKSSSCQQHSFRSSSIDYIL

cynomolgus CCR8 [3] = target: T5, cynomolgus CCR8; assay: flow cytometry on cyCCR8 Jurkat cells
Procedure: (§1) The candidate molecules were assessed for binding capacity using flow cytometry through known methods against overexpressed huCCR8 or cyCCR8 on the surface of Jurkat cells. The exemplary antibodies were tested for their ability to self-interact, bind to huCCR8 and cyCCR8, capacity for ADCC using the reporter bioassay, and non-specific binding to HEK293 cells. […] The AC-SINS self-interaction scores for each candidate was <1. At 100 μg/mL, non-specific binding maximums ranged from 97 to 144 GMFI. At 10 μg/mL, non-specific binding maximums ranged from 94-111 GFMI. At 1 μg/mL, non-specific binding maximums ranged from 87-102 GMFI.

[4] = target: T4, human CCR8 (chemokine receptor 8); assay: flow cytometry on huCCR8 Jurkat cells
Procedure: as §1

rat CCR8 = target: T1, rat CCR8; assay: not told
rabbit CCR8 = target: T2, rabbit CCR8; assay: not told
mouse CCR8 = target: T3, mouse CCR8; assay: not told
[5] = target: T4, human CCR8 (chemokine receptor 8); assay: cell-based or functional assay; remark: listed apart in the source

Binder | ADCC reporter huCCR8 EC50 [1] | ADCC reporter huCCR8 Max Fold Induction [1] | ADCC reporter cyCCR8 EC50 (cynomolgus CCR8 [2]) | ADCC reporter cyCCR8 Max Fold Induction (cynomolgus CCR8 [2]) | EC50 (cynomolgus CCR8 [3]) | EC50 [4] | binding result (rat CCR8) | binding result (rabbit CCR8) | binding result (mouse CCR8) | EC50 of CCL1 blockade (CCR8 beta-arrestin reporter assay) [5]
B1 | 0.12 nM | 12.8 fold | 0.79 nM | 12 fold | 5.27 nM | 2.33 nM |  |  |  | 
B2 | 0.07 nM | 13.6 fold | 1.19 nM | 10 fold | 5.93 nM | 2.9 nM |  |  |  | 
B3 | 0.1 nM | 15.7 fold | 0.75 nM | 12.3 fold | 2.37 nM | 1.51 nM |  |  |  | 
B4 | 0.05 nM | 12.7 fold | 0.57 nM | 11.7 fold | 4.83 nM | 1.87 nM |  |  |  | 
B5 |  |  |  |  |  |  | no binding | no binding | no binding | 23.1 µg/mL
